Among the data in publication PMC4664405 are bound vs. input (densitometry) and sGC bound over input (densitometry) values, retold here.

The target in the experiment is Flag-tagged PDI-WT (UniProt P07237). In words: co-IP; Flag-M2 affinity resin on COS-7 lysates (50 mM TrisHCl, 150 mM NaCl); PDI-Flag co-expressed with one sGC subunit or one α construct; Western blot, densitometry of bound over input. (Immunoblotting shows a protein as a band on a membrane.)
Chain of Flag-tagged PDI-WT (P07237 18-508): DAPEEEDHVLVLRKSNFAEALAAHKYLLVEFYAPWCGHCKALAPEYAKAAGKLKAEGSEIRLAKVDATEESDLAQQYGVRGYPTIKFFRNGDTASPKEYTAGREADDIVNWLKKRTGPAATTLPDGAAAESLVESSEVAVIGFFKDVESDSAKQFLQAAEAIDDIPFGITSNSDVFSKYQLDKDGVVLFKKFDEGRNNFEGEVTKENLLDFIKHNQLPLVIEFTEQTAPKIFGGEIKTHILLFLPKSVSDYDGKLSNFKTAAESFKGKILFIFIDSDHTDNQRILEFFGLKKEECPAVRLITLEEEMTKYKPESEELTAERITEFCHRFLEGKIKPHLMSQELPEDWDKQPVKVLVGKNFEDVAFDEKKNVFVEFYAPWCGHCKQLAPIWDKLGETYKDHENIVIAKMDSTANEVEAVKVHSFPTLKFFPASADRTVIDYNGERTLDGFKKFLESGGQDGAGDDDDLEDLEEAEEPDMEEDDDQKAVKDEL

“sGC α WT, expressed in COS-7 cells (from UniProt Q02108 1-690) (enzyme)” showed a bound vs. input (densitometry) of 1.01 and a sGC bound over input (densitometry) of 1.08.

For “sGC β WT, expressed in COS-7 cells (from UniProt Q02153 1-619) (enzyme)”, the sGC bound over input (densitometry) was found to be 0.74.
